According to patent US5741673, “Nucleic acid encoding a novel homeobox factor which stimulates insulin expression in pancreatic islet cells” (Research Development Foundation):

B1: somatostatin TSE II (dsDNA)
DNA 1: GATCTCAGTAATAATCATGCAG
DNA 2: CTGCATGATTATTACTGAGATC
B2: somatostatin TSE I (dsDNA)
DNA 1: TTGCGAGGCTAATGGTGCG
DNA 2: CGCACCATTAGCCTCGCAA
B3: rat insulin I FLAT (E2) (dsDNA)
DNA 1: TTAATAATCTAATTACCC
DNA 2: GGGTAATTAGATTATTAA
B4: rat insulin I P-Box (dsDNA)
DNA 1: CTTAATGGGCCAAACGGCA
DNA 2: TGCCGTTTGGCCCATTAAG

Experiments:
[1] = molecular target: T1, ITF-1 full length (CMV expression) (rat, UniProt P52947 SEQ:1-283); assay: cell_activity; TSE II somatostatin reporter in HeLa cells
[2] = molecular target: T1, ITF-1 full length (CMV expression); assay: cell_activity; TSE I somatostatin reporter in HeLa cells
[3] = molecular target: ITF-1 fragment aa 124-283 (thrombin-cleaved from GST fusion) (rat, UniProt P52947 SEQ:124-283); assay: footprint; DNase I; also bound in EMSA; conditions: tags: GST removed by thrombin
Chain of ITF-1 fragment aa 124-283 (thrombin-cleaved from GST fusion) (P52947 124-283): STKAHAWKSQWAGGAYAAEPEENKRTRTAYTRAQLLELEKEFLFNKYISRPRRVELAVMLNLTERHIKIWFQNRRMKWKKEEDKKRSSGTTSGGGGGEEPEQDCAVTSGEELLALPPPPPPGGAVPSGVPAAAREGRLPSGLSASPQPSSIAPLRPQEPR

T1 sequence (P52947 whole entry): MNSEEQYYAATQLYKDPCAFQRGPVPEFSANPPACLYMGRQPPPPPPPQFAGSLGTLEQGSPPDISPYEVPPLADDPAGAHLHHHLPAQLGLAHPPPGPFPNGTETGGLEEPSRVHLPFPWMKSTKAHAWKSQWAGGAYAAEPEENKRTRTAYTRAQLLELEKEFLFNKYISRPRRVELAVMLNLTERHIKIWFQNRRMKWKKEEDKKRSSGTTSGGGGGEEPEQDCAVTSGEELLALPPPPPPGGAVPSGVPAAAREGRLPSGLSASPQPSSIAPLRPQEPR

Binder | binding result [3] | also measured
B1 |  | activity [1]: ~12 fold
B2 |  | activity [2]: ~12 fold
B3 | binds | 
B4 | binds | 
